hAMY1 cAMP EC50 (pM) and hCT cAMP EC50 (pM) data for two molecules are collected here from patent US20230190944A1.

Assay [1] addresses Human AMY1 receptor (amylin receptor 1) (human), P30988. The assay is described as follows: cell-based or functional assay.
Assay [2] addresses Human CT receptor (calcitonin receptor) (human), P30988. The assay is described as follows: cell-based or functional assay.

Starred links: 1 amine or outer side, 2 acyl side, 3 side chain; linkers in the order of their positions; H or OH if unused. Non-standard residues stand in square brackets, D forms with d. Groups on a side chain read outwards from the residue. *: point of attachment. C20 diacid = O=C(O)CCCCCCCCCCCCCCCCCCC(=O)*; γGlu = O=C(O)[C@H](CCC(=O)[*:2])N[*:1]; AEEA = NCCOCCOCC(=O)O; Aib = CC(C)(N)C(=O)O

Human AMY1 receptor (amylin receptor 1) (human), P30988, sequence (P30988 25-474, chain 1 of 2): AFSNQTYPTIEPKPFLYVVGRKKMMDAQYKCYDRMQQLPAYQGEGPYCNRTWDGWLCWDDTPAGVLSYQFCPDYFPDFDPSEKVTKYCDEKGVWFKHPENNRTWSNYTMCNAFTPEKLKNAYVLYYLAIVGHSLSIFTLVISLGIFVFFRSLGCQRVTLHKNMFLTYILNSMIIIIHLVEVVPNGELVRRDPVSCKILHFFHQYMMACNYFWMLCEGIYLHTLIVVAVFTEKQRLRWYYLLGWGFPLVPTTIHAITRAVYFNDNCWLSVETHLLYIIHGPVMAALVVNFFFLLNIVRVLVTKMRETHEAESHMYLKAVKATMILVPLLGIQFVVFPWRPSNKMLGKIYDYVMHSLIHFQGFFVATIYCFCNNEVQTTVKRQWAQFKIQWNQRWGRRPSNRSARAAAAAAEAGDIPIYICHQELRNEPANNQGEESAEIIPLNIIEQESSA
Human AMY1 receptor (amylin receptor 1) (human), P30988, sequence (O60894 27-148, chain 2 of 2, further chain): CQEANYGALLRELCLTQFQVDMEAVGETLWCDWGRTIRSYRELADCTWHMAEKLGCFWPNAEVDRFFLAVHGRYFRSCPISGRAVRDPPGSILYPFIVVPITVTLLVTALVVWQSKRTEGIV
Human CT receptor (calcitonin receptor) (human), P30988, sequence (P30988 25-474): as the sequence (P30988 25-474, chain 1 of 2) above

B1: Compound I (peptide)
peptide: Ac-ASHLSTAVLGKLS[Aib]ELHKLEDYPRTDVGAESP-NH2
SMILES: CC(=O)N[C@@H](C)C(=O)N[C@@H](CO)C(=O)N[C@@H](Cc1c[nH]cn1)C(=O)N[C@@H](CC(C)C)C(=O)N[C@@H](CO)C(=O)N[C@H](C(=O)N[C@@H](C)C(=O)N[C@H](C(=O)N[C@@H](CC(C)C)C(=O)NCC(=O)N[C@@H](CCCCN)C(=O)N[C@@H](CC(C)C)C(=O)N[C@@H](CO)C(=O)NC(C)(C)C(=O)N[C@@H](CCC(=O)O)C(=O)N[C@@H](CC(C)C)C(=O)N[C@@H](Cc1c[nH]cn1)C(=O)N[C@@H](CCCCN)C(=O)N[C@@H](CC(C)C)C(=O)N[C@@H](CCC(=O)O)C(=O)N[C@@H](CC(=O)O)C(=O)N[C@@H](Cc1ccc(O)cc1)C(=O)N1CCC[C@H]1C(=O)N[C@@H](CCCNC(=N)N)C(=O)N[C@H](C(=O)N[C@@H](CC(=O)O)C(=O)N[C@H](C(=O)NCC(=O)N[C@@H](C)C(=O)N[C@@H](CCC(=O)O)C(=O)N[C@@H](CO)C(=O)N1CCC[C@H]1C(N)=O)C(C)C)[C@@H](C)O)C(C)C)[C@@H](C)O
With B1, the hAMY1 cAMP EC50 (pM) in assay [1] turned out to be 49.3 pM. The hCT cAMP EC50 (pM) in assay [2] was 31.7 pM.

B2: Compound II (peptide)
peptide: Ac-ASHLSTAVLGK([AEEA-AEEA-γGlu-C20 diacid])LS[Aib]ELHKLEDYPRTDVGAESP-NH2
SMILES: CC(=O)N[C@@H](C)C(=O)N[C@@H](CO)C(=O)N[C@@H](Cc1c[nH]cn1)C(=O)N[C@@H](CC(C)C)C(=O)N[C@@H](CO)C(=O)N[C@H](C(=O)N[C@@H](C)C(=O)N[C@H](C(=O)N[C@@H](CC(C)C)C(=O)NCC(=O)N[C@@H](CCCCNC(=O)COCCOCCNC(=O)COCCOCCNC(=O)CC[C@H](NC(=O)CCCCCCCCCCCCCCCCCCC(=O)O)C(=O)O)C(=O)N[C@@H](CC(C)C)C(=O)N[C@@H](CO)C(=O)NC(C)(C)C(=O)N[C@@H](CCC(=O)O)C(=O)N[C@@H](CC(C)C)C(=O)N[C@@H](Cc1c[nH]cn1)C(=O)N[C@@H](CCCCN)C(=O)N[C@@H](CC(C)C)C(=O)N[C@@H](CCC(=O)O)C(=O)N[C@@H](CC(=O)O)C(=O)N[C@@H](Cc1ccc(O)cc1)C(=O)N1CCC[C@H]1C(=O)N[C@@H](CCCNC(=N)N)C(=O)N[C@H](C(=O)N[C@@H](CC(=O)O)C(=O)N[C@H](C(=O)NCC(=O)N[C@@H](C)C(=O)N[C@@H](CCC(=O)O)C(=O)N[C@@H](CO)C(=O)N1CCC[C@H]1C(N)=O)C(C)C)[C@@H](C)O)C(C)C)[C@@H](C)O
B2 came in with a hAMY1 cAMP EC50 (pM) in assay [1] of 49.4 pM. For the same molecule, the hCT cAMP EC50 (pM) in assay [2] is 40.9 pM.
